The chains are these.
T1: Spt7 with a C-terminal TAP tag (S. cerevisiae, UniProt P35177 1-1332)
T1 construct: Spt7, SAGA core subunit, S. cerevisiae; expressed at endogenous level; SAGA was captured on IgG Sepharose by the TAP tag and released from the beads by TEV cleavage of the tag; also called Spt7-TAP; not shown: TAP, C-terminal, kept
T1 sequence (looked up): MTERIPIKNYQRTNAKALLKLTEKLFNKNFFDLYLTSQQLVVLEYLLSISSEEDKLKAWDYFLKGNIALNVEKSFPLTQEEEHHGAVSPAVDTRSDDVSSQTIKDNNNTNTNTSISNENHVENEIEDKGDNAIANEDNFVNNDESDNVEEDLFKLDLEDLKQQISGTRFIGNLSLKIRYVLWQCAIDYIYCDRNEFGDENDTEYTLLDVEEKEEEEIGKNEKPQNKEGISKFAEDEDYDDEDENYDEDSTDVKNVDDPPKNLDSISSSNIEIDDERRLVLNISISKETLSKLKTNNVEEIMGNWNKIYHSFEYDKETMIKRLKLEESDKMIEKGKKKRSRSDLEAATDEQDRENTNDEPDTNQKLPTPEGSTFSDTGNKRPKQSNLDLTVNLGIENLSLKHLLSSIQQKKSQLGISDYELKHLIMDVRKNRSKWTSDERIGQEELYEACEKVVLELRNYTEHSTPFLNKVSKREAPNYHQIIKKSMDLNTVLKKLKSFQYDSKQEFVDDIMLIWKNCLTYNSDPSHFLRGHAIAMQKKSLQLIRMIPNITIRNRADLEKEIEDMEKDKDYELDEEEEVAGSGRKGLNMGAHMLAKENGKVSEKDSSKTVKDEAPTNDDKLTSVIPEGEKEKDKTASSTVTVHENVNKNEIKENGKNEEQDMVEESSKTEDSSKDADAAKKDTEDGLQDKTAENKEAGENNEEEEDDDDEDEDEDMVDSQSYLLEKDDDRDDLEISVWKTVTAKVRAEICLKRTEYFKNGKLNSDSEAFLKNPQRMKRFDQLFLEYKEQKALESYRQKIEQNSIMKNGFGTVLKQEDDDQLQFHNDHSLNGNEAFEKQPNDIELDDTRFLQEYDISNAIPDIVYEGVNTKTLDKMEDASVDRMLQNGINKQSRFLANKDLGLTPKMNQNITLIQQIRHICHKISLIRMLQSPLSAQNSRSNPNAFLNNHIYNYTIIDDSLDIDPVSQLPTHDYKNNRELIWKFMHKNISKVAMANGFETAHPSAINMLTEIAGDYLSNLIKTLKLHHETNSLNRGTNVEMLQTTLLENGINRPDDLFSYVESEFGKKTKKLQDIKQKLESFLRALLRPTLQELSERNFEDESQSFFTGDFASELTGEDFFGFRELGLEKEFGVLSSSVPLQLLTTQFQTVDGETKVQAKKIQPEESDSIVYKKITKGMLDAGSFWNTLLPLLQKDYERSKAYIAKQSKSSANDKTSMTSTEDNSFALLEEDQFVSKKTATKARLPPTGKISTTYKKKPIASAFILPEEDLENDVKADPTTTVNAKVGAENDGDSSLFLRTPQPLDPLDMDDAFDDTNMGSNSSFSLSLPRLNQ

B1: Ada2 ΔSWIRM (Δ residues 349–434, chromosomal deletion) (natural protein, S. cerevisiae, UniProt Q02336 1-434, looked up)
chain: MSNKFHCDVCSADCTNRVRVSCAICPEYDLCVPCFSQGSYTGKHRPYHDYRIIETNSYPILCPDWGADEELQLIKGAQTLGLGNWQDIADHIGSRGKEEVKEHYLKYYLESKYYPIPDITQNIHVPQDEFLEQRRHRIESFRERPLEPPRKPMASVPSCHEVQGFMPGRLEFETEFENEAEGPVKDMVFEPDDQPLDIELKFAILDIYNSRLTTRAEKKRLLFENHLMDYRKLQAIDKKRSKEAKELYNRIKPFARVMTAQDFEEFSKDILEELHCRARIQQLQEWRSNGLTTLEAGLKYERDKQARISSFEKFGASTAASLSEGNSRYRSNSAHRSNAEYSQNYSEN
notes: Ada2, S. cerevisiae, without the SWIRM domain (residues 349–434 substituted with KanMX in the gene); source: S. cerevisiae strain YCW20, SWIRM domain deleted by homologous recombination, in lysate
B2: Gcn5 (endogenous) (enzyme, S. cerevisiae (endogenous in yeast), UniProt Q03330 1-439, looked up)
chain: MVTKHQIEEDHLDGATTDPEVKRVKLENNVEEIQPEQAETNKQEGTDKENKGKFEKETERIGGSEVVTDVEKGIVKFEFDGVEYTFKERPSVVEENEGKIEFRVVNNDNTKENMMVLTGLKNIFQKQLPKMPKEYIARLVYDRSHLSMAVIRKPLTVVGGITYRPFDKREFAEIVFCAISSTEQVRGYGAHLMNHLKDYVRNTSNIKYFLTYADNYAIGYFKKQGFTKEITLDKSIWMGYIKDYEGGTLMQCSMLPRIRYLDAGKILLLQEAALRRKIRTISKSHIVRPGLEQFKDLNNIKPIDPMTIPGLKEAGWTPEMDALAQRPKRGPHDAAIQNILTELQNHAAAWPFLQPVNKEEVPDYYDFIKEPMDLSTMEIKLESNKYQKMEDFIYDARLVFNNCRMYNGENTSYYKYANRLEKFFNNKVKEIPEYSHLID
notes: Gcn5, histone acetyltransferase subunit of the SAGA HAT module, S. cerevisiae; source: endogenous, S. cerevisiae lysate / whole cell extract
B3: Ada3 (endogenous) (natural protein, S. cerevisiae (endogenous in yeast), UniProt P32494 1-702, looked up)
chain: MPRHGRRGKLPKGEKLPKKEGGDNTPSKLLSSMLKTLDLTFERDIGMLNGKSVRSIPNKKTLLELQSQLDSLNEILGTIARGDQETIEALRKIRDSKNEKQANDEKQETSNADGQHESSTATEETNIIDKGVQSPPKPPPSNEISGTIENDVESIKQAADNMAKEEINEDKDLQVHRDQPREKRPFDSETENRATENENTQRPDNKKQKIDVDKMENDPTVKNPKSEFVVSQTLPRAAAALGLFNEEGLESTGEDFLKKKYNVASYPTNDLKDLLPGELPDMDFSHPKPTNQIQFNTFLAFVENFFKDLSDDNLKFLKMKYIIPDSLQFDKTYDPEVNPFIIPKLGPLYTDVWFKDENDKNSAYKKPSPYSNDASTILPKKSANELDDNALESGSISCGPLLSRLLSAVLKDDNDKSELQSSKIIRDGGLPRTGGEDDIQSFRNNNNDTVDMTLSQENGPSVQTPDNDIDEEASFQAKLAENKGSNGGTTSTLPQQIGWITNGINLDYPTFEERLKRELKYVGIYMNLPKDENNPNSDDPDWVTGREDDEISAELRELQGTLKQVTKKNQKRKAQLIPLVERQLAWQEYSSILEDLDKQIDQAYVKRIRVPKKRKKHHTAASNNVNTGTTSQIAQQKAANSSLKSLLDKRQRWINKIGPLFDKPEIMKRIPNESVFKDMDQEEDEDEADVFAQNTNKDVELN
notes: Ada3, SAGA HAT module subunit, S. cerevisiae; source: endogenous, S. cerevisiae lysate / whole cell extract
B4: Sgf29 (endogenous) (natural protein, S. cerevisiae (endogenous in yeast), UniProt P25554 1-259, looked up)
chain: MDGYWDVVVSSLQDIYNANEVIPFDDELQTKKLNFLNMSKDQLQLHLNTFQEHMENVNRVHRILDNVRSNLSLMLNQSREEKSEENTEDAEEGEGTRMALSQGKKAVGKVGRSYWTSEYNPNAPILVGSEVAYKPRRGSADGEWIQCEVLKVVADGTRFEVRDPEPDELGNSGKVYKCNRKELLLIPPGFPTKNYPPGTKVLARYPETTTFYPAIVIGTKRDGTCRLRFDGEEEVDKETEVTRRLVLPSPTALANLARK
notes: Sgf29, SAGA HAT module subunit, S. cerevisiae; source: endogenous, S. cerevisiae lysate / whole cell extract

In the assay the target is T1, Spt7 with a C-terminal TAP tag. The experiment in a line: affinity purification with mass spectrometry; SAGA purified by Spt7-TAP from yeast with the Ada2 SWIRM domain deleted (YCW20): IgG Sepharose, TEV cleavage, HiTrap Q; LC-MS/MS, total spectrum counts normalized to Spt7. Conditions: partners not purified.
For B1, the “fold depletion against wild type SAGA” value is ~7 fold.
In the case of B2, the “fold depletion against wild type SAGA” value was ~7 fold.
Regarding B3, the “fold depletion against wild type SAGA” value was ~7 fold.
B4: the “fold depletion against wild type SAGA” value was ~7 fold.

The values above are taken from paper PMC10226619, “The SAGA HAT module is tethered by its SWIRM domain and modulates activity of the SAGA DUB module” (Biochimica et biophysica acta. Gene regulatory mechanisms, 2023).
